Source: patent US20230242620A1

Assays:
[1] = target: analytical polyclonal antibody generated in Example 2; assay: SPR Biacore T100, polyclonal immobilized, 500 nM ISV, RU at end of injection
[2] = target: serum sample IHUS#B09032311A1; assay: ECL drug displacement assay, variant as competitor against labelled SEQ ID NO:1
[3] = target: serum sample IHUS#B09032311A3 (pre-existing antibodies against ISV); assay: as above
[4] = target: serum sample IHUS#B09032311A20 (pre-existing antibodies against ISV); assay: as above
[5] = target: affinity purified antibody IHuP#002-001-ABL-08; assay: ECL bridging/competition assay, 10 ug/ml ISV, 400 ng/ml antibody, labelled SEQ ID NO:1

| Binding (RU) [1] | % reduction [2] | ECLU confirmatory assay [2] | % reduction [3] | ECLU confirmatory assay [3] | % reduction [4] | ECLU confirmatory assay [4] | % reduction [5] | ECLU confirmatory assay [5] | Binder |
| --- | --- | --- | --- | --- | --- | --- | --- | --- | --- |
| 66 RU | – | – | – | – | – | – | – | – | Nb6.5 (VHH) VHH: EVQLLESGGGLVQPGGSLRLSCAASGLPFSTKSMGWFRQAPGKGREFVSRISPGGTSRYYGDFVKGRFTISRDNSKNTLYLQMNSLRAEDTAVYYCASGERSTYIGSNYYRTNEYDYWGQGTLVTVSS |
| 39 RU | – | – | – | – | – | – | – | – | Nb6.2 (VHH) VHH: EVQLVESGGGLVQPGGSLRLSCIASGLPFSTKSMGWFRQAPGKEREFVARISPGGTSRYYGDFVKGRFAISRDNAKNTTWLQMNSLKAEDTAVYYCASGERSTYIGSNYYRTNEYDYWGTGTQVTVSS |
| 51 RU | – | – | – | – | – | – | – | – | Nb4.1 (VHH) VHH: EVQLVESGGGLVQPGGSLRLSCAASGSVFKINVMAWYRQAPGKGRELVAGIISGGSTSYADSVKGRFTISRDNAKNTLYLQMNSLRPEDTAVYYCAFITTESDYDLGRRYWGQGTLVTVSS |
| 91 RU | – | – | – | – | – | – | – | – | Nb3.10 (VHH) VHH: EVQLVESGGGLVQAGGSLRLSCAASRSIGRLDRMGWYRHRPGEPRELVATITGGSSINYGDSVKGRFTISIDNSKNTVYLQMNSLRPEDTAVYYCNFNKYVTSRDTWGQGTLVTVSS |
| 79 RU | – | – | – | – | – | – | – | – | Nb3.14 (VHH) VHH: EVQLVESGGGLVQPGGSLRLSCAASRSIGRLDRMGWYRHRPGEPRELVATITGGSSINYGDSVKGRFTISIDNSKNTVYLQMNSLRPEDTAVYYCNFNKYVTSRDTWGQGTLVQVSS |
| 2 RU | – | – | – | – | – | – | – | – | Nb3.1 (VHH) VHH: EVQLVESGGGLVQAGGSLRLSCAASRSIGRLDRMGWYRHRTGEPRELVATITGGSSINYGDFVKGRFTISIDNAKNTVYLQMNNLKPEDTAVYYCNFNKYVTSRDTWGQGTQVTVSS |
| 86 RU | – | – | – | – | – | – | – | – | Nb3.12 (VHH) VHH: EVQLVESGGGLVQAGGSLRLSCAASRSIGRLDRMGWYRHRPGEPRELVATITGGSSINYGDSVKGRFTISIDNSKNTVYLQMNSLRPEDTAVYYCNFNKYVTSRDTWGQGTQVTVSS |
| 88 RU | – | – | – | – | – | – | – | – | Nb3.11 (VHH) VHH: EVQLVESGGGLVQPGGSLRLSCAASRSIGRLDRMGWYRHRPGEPRELVATITGGSSINYGDSVKGRFTISIDNSKNTVYLQMNSLKPEDTAVYYCNFNKYVTSRDTWGQGTLVTVSS |
| 22 RU | – | – | – | – | – | – | – | – | Nb3.15 (VHH) VHH: EVQLVESGGGSVQPGGSLRLSCAASRSIGRLDRMGWYRHRPGEPRELVATITGGSSINYGDSVKGRFTISIDNSKNTVYLQMNSLRPEDTAVYYCNFNKYVTSRDTWGQGTLVTVSS |
| 90 RU | – | – | – | – | – | – | – | – | Nb3.13 (VHH) VHH: EVQLVESGGGLVQPGGSLRLSCAASRSIGRLDRMGWYRHRPGEPRELVATITGGSSINYGDSVKGRFTISIDNSKNTVYLQMNSLRPEDTAVYYCNFNKYVTSRDTWGQGTQVTVSS |

Continued, binder first:

| Binder | Binding (RU) [1] | % reduction [2] | ECLU confirmatory assay [2] | % reduction [3] | ECLU confirmatory assay [3] | % reduction [4] | ECLU confirmatory assay [4] | % reduction [5] | ECLU confirmatory assay [5] |
| --- | --- | --- | --- | --- | --- | --- | --- | --- | --- |
| Example 1C: (A14P, R39Q, K83R, T91Y, Q108L)-QA (VHH) VHH: EVQLVESGGGLVQPGGSLRLSCAASGRTFNNYAMGWFRQAPGKEREFVAAITRSGVRSGVSAIYGDSVKDRFTISRDNAKNTLYLQMNSLRPEDTAVYYCAASAIGSGALRRFEYDYSGQGTLVTVSS | – | 3% | 60 ECLU | 18% | 1810 ECLU | 18% | 15100 ECLU | 58.6% | 1210 ECLU |
| Example 1c: (A14P, R39Q, K83R,T91Y, Q108L) (VHH) VHH: EVQLVESGGGLVQPGGSLRLSCAASGRTFNNYAMGWFRQAPGKEREFVAAITRSGVRSGVSAIYGDSVKDRFTISRDNAKNTLYLQMNSLRPEDTAVYYCAASAIGSGALRRFEYDYSGQGTLVTVSS | – | 6% | 58 ECLU | 90% | 228 ECLU | 97% | 570 ECLU | 91.4% | 251 ECLU |
| Example 1C: (Q108L) (VHH) VHH: EVQLVESGGGLVQAGGSLRLSCAASGRTFNNYAMGWFRRAPGKEREFVAAITRSGVRSGVSAIYGDSVKDRFTISRDNAKNTLYLQMNSLKPEDTAVYTCAASAIGSGALRRFEYDYSGQGTLVTVSS | – | 5% | 59 ECLU | 31% | 1530 ECLU | 62% | 6990 ECLU | 13.2% | 2530 ECLU |
| Example 1C: (A14P, R39Q, K83R, T91Y, Q108L)-3A (VHH) VHH: EVQLVESGGGLVQPGGSLRLSCAASGRTFNNYAMGWFRQAPGKEREFVAAITRSGVRSGVSAIYGDSVKDRFTISRDNAKNTLYLQMNSLRPEDTAVYYCAASAIGSGALRRFEYDYSGQGTLVTVSS | – | 0% | 62 ECLU | 13% | 1930 ECLU | 18% | 15200 ECLU | -13.1% | 3300 ECLU |
| Example 1C: (K83R) (VHH) VHH: EVQLVESGGGLVQAGGSLRLSCAASGRTFNNYAMGWFRRAPGKEREFVAAITRSGVRSGVSAIYGDSVKDRFTISRDNAKNTLYLQMNSLRPEDTAVYTCAASAIGSGALRRFEYDYSGQGTQVTVSS | – | 1% | 62 ECLU | 37% | 1400 ECLU | 63% | 6910 ECLU | 15.7% | 2460 ECLU |
| Example 1C: wildtype (VHH) VHH: EVQLVESGGGLVQAGGSLRLSCAASGRTFNNYAMGWFRRAPGKEREFVAAITRSGVRSGVSAIYGDSVKDRFTISRDNAKNTLYLQMNSLKPEDTAVYTCAASAIGSGALRRFEYDYSGQGTQVTVSS | – | 4% | 60 ECLU | 20% | 1780 ECLU | 53% | 8680 ECLU | 7.3% | 2710 ECLU |
| Example 1C: (A14P) (VHH) VHH: EVQLVESGGGLVQPGGSLRLSCAASGRTFNNYAMGWFRRAPGKEREFVAAITRSGVRSGVSAIYGDSVKDRFTISRDNAKNTLYLQMNSLKPEDTAVYTCAASAIGSGALRRFEYDYSGQGTQVTVSS | – | 10% | 56 ECLU | 91% | 205 ECLU | 96% | 668 ECLU | 90.8% | 268 ECLU |
| Example 1C: (A14P, K83R, Q108L) (VHH) VHH: EVQLVESGGGLVQPGGSLRLSCAASGRTFNNYAMGWFRRAPGKEREFVAAITRSGVRSGVSAIYGDSVKDRFTISRDNAKNTLYLQMNSLRPEDTAVYTCAASAIGSGALRRFEYDYSGQGTLVTVSS | – | 8% | 57 ECLU | 93% | 156 ECLU | 97% | 628 ECLU | 89.1% | 319 ECLU |
